Assays:
Assay in all cases: co-immunoprecipitation with anti-Taz antibody from infected BMK cells, Western blot
[1] = target: T1, polyoma virus large T antigen, wild-type (strain PTA), full length (murine polyoma virus, strain PTA)
T1 construct: mature; also called normal large T antigen; WT large T antigen

[2] = target: T2, polyoma virus small T antigen, wild-type (murine polyoma virus)
T2 construct: also called sT

[3] = target: T3, polyoma virus middle T antigen, wild-type (murine polyoma virus)
T3 construct: also called mT
T3 sequence (P0DOJ8 whole entry): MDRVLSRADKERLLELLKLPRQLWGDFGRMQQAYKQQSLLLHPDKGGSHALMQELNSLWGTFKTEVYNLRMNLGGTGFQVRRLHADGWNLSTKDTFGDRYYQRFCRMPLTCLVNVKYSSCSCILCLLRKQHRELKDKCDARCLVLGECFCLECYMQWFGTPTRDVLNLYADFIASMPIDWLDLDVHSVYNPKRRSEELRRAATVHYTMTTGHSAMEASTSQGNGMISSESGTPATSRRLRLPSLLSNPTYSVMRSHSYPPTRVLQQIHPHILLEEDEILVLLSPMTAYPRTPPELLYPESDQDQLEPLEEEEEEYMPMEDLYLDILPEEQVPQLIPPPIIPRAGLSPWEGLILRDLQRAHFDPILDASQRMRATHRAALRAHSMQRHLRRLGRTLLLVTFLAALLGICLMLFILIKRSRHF

T1 sequence (P0DOJ5 whole entry): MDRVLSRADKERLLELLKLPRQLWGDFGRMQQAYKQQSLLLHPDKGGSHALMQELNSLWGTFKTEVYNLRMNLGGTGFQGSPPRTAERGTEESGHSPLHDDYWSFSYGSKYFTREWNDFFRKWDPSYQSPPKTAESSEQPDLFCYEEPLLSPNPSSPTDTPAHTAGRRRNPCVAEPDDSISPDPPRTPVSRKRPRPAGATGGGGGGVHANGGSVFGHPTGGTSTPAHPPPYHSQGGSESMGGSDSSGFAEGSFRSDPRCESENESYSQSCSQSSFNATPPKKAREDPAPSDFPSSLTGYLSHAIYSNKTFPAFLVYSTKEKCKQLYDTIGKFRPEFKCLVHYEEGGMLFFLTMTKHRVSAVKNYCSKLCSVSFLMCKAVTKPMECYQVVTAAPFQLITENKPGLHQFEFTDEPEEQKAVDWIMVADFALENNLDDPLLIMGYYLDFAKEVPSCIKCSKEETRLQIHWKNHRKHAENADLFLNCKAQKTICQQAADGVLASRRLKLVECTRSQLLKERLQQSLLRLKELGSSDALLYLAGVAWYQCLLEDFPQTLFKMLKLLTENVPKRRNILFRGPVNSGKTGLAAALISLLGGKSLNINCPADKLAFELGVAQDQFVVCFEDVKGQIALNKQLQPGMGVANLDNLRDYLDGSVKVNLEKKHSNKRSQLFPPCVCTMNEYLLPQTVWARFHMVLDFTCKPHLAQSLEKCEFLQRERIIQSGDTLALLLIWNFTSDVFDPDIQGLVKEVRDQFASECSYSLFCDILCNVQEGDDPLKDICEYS
T2 sequence (P68834 whole entry): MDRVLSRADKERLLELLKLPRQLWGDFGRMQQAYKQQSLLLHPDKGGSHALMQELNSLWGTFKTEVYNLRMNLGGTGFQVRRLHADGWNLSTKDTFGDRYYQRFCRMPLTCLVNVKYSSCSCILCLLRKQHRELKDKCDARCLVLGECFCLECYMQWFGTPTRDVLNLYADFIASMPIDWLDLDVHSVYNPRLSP

B1: murine Taz (transcriptional co-activator with PDZ binding motif) (other, mouse, UniProt Q9EPK5 1-395, looked up)
chain: MNPSSVPHPLPPPGQQVIHVTQDLDTDLEALFNSVMNPKPSSWRKKILPESFFKEPDSGSHSRQSSTDSSGGHPGPRLAGGAQHVRSHSSPASLQLGTGAGAAGGPAQQHAHLRQQSYDVTDELPLPPGWEMTFTATGQRYFLNHIEKITTWQDPRKVMNQPLNHVNLHPSITSTSVPQRSMAVSQPNLAMNHQHQQVVATSLSPQNHPTQNQPTGLMSVPNALTTQQQQQQKLRLQRIQMERERIRMRQEELMRQEAALCRQLPMETETMAPVNTPAMSTDMRSVTNSSSDPFLNGGPYHSREQSTDSGLGLGCYSVPTTPEDFLSNMDEMDTGENSGQTPMTVNPQQTRFPDFLDCLPGTNVDLGTLESEDLIPLFNDVESALNKSEPFLTWL
notes: Endogenous protein immunoprecipitated from mouse cell extracts, or a library clone in yeast; also called mTaz
B1 was tested, and the relative binding efficiency [1] was 1 ratio large T: middle T: small T, the relative binding efficiency [2] was 100 ratio large T: middle T: small T and the relative binding efficiency [3] was 7 ratio large T: middle T: small T.

— US20050013803A1 (published 2005)
